Data from the supplement of paper PMC9732359.
± gives the uncertainty stated by the source.

Assay: protein stability index of a GFP-peptide fusion (yeast GPS) (PSI 1-4); higher = more stable; sorted into four equal gates, so the index is relative within each strain
Outline: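 For each peptide, the protein stability index sums the read frequency in every gate after multiplying it by the gate number. Read frequencies came from plasmids that were PCR-amplified from each gate and Illumina-sequenced, with reads assigned to strains by barcodes. The gates were four equal bins of GFP/Cherry fluorescence ratio applied to mid-log yeast in leucine-free medium carrying a pooled library of tiled 17-residue yeast protein peptides fused downstream of GFP on a Cherry-expressing plasmid.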

| Sequence | protein stability index (doa10∆) | protein stability index (pdr5∆) | protein stability index (san1∆) | protein stability index (ubr1∆) |
| --- | --- | --- | --- | --- |
| KTTNTTPSFSFGAKSDE [YJL041W/NSP1] | 3.27 ± 0.079 | 3.24 ± 0.082 | 3.09 ± 0.035 | 3.18 ± 0.048 |
| RLELPVDFQNDLKDILE [BRR2] | 2.83 ± 0.14 | 3.09 ± 0.084 | 2.78 ± 0.061 | 2.81 ± 0.052 |
| DALRRGMLAMASLHSKE [MED4] | 1.87 ± 0.15 | 2.23 ± 0.15 | 2.24 ± 0.17 | 2.05 ± 0.17 |
| EAARICANKYMTTVSGR [RPL10] | 2.24 ± 0.24 | 2.59 ± 0.14 | 1.75 ± 0.2 | 1.93 ± 0.1 |
| PDNSIFGDTKSESKQLG [SWI3] | 3.54 ± 0.14 | 3.23 ± 0.091 | 3.21 ± 0.076 | 3.37 ± 0.052 |
| KLQSWDKVSSCFPQYVN [NNF1] | 1.42 ± 0.099 | 1.94 ± 0.09 | 1.45 ± 0.15 | 2.68 ± 0.1 |
| APPQRPRFNRENKVSPA [RPS26A] | 3.38 ± 0.15 | 2.83 ± 0.17 | 3 ± 0.072 | 2.95 ± 0.12 |
| ASDESLLRYGGAFTIAL [RPN2] | 3.39 ± 0.099 | 3.35 ± 0.13 | 3.25 ± 0.098 | 3.34 ± 0.083 |
| AFLSFLAYRNYWTQYLG [YJL039C/NUP192] | 1.33 ± 0.057 | 1.26 ± 0.04 | 1.26 ± 0.11 | 1.26 ± 0.068 |
| FVLLEIEPVTKVSSLKM [YCS4] | 2.34 ± 0.049 | 2.18 ± 0.066 | 2.48 ± 0.059 | 2.35 ± 0.054 |
| KTVAVDSVFEQNEMIDA [RPL3] | 2.57 ± 0.095 | 2.75 ± 0.12 | 2.31 ± 0.11 | 2.51 ± 0.042 |
| CFKPMSLTSKRLISQSL [RIP1] | 2.64 ± 0.24 | 2.42 ± 0.16 | – | 2.1 ± 0.049 |
| RAFQKQPHIFNNPKVKT [RPS11A] | 2.33 ± 0.052 | 2.48 ± 0.043 | 2.59 ± 0.044 | 2.21 ± 0.028 |
| LWVFQAFTCFCIKKIME [SRB8] | 1.69 ± 0.044 | 1.52 ± 0.04 | 1.27 ± 0.073 | 1.48 ± 0.037 |
| LKTFNGSLALLKLSMAD [POP4] | 2.33 ± 0.046 | 2.33 ± 0.067 | 2.45 ± 0.063 | 2.36 ± 0.036 |
| AKQAKIRAGEFDVVLTT [SNF2] | 3.56 ± 0.11 | 3.3 ± 0.13 | 2.57 ± 0.12 | 3.23 ± 0.11 |
| TEDILKEISTRVFNAKD [YCS4] | 3.11 ± 0.13 | 3.17 ± 0.095 | 3.25 ± 0.095 | 3.29 ± 0.092 |
| GKLWKDVKARIAAGDGD [QCR9] | 2.3 ± 0.11 | 2.58 ± 0.16 | 2.17 ± 0.07 | 2.37 ± 0.098 |
| GIEHFDIPPPAIMKPYY [RPO31] | 2.69 ± 0.15 | 2.92 ± 0.084 | 3.34 ± 0.13 | 2.91 ± 0.099 |
| DIFVYLTYDKDLTNNPQ [MTR3] | 2.1 ± 0.05 | 1.98 ± 0.073 | 2.35 ± 0.1 | 2.28 ± 0.065 |
| DWPTYVDQNPLTMHKII [SRB8] | 2.45 ± 0.09 | 2.76 ± 0.08 | 2.69 ± 0.074 | 2.91 ± 0.07 |
| PMPIITFLSEWGMEPLE [RPB2] | 2.7 ± 0.06 | 2.96 ± 0.09 | 2.51 ± 0.08 | 2.76 ± 0.071 |
| QVEYALEAIKQGSVTVG [PRE5] | 2.92 ± 0.12 | 3.33 ± 0.21 | 3.14 ± 0.17 | 3.09 ± 0.18 |
| SVFKGGMQNLIKKKKKK [SRP14] | 2 ± 0.18 | 3.05 ± 0.3 | – | – |
| DYVVAPGVNREINSEMC [GRR1] | – | 3.18 ± 0.2 | 3.32 ± 0.082 | 3.13 ± 0.064 |
| MVLVQDLLHPTAASEAR [RPS27A] | 2.45 ± 0.19 | 3.37 ± 0.089 | 3.17 ± 0.19 | 3.17 ± 0.11 |
| SGTSSDPDTKKVKESPA [YIL149C/MLP2] | 3.21 ± 0.059 | 3.2 ± 0.046 | 3.14 ± 0.038 | 3.23 ± 0.061 |

| Sequence | protein stability index (doa10∆) | protein stability index (pdr5∆) | protein stability index (san1∆) | protein stability index (ubr1∆) |
| --- | --- | --- | --- | --- |
| ESTSSTEEVEALLQRLK [MTW1] | – | – | – | 3.23 ± 0.19 |
| LLKYSNETKKRNFLETV [RPL1A] | 3 ± 0.25 | 2.72 ± 0.23 | – | – |
| SNETIGEIQLLFQRQKL [IRR1] | 2.61 ± 0.22 | 2.8 ± 0.17 | 3.14 ± 0.14 | – |
| LETILEEFRNLAALNVW [SSN2] | 2.9 ± 0.11 | 2.98 ± 0.1 | 2.52 ± 0.11 | 3.32 ± 0.057 |
| KEISTRVFNAKDTTGPK [YCS4] | 3.04 ± 0.11 | 2.91 ± 0.13 | 3.21 ± 0.081 | 2.99 ± 0.089 |
| RDVRDQAAGGLSIRLTN [RPN8] | 2.89 ± 0.087 | 2.85 ± 0.095 | 2.89 ± 0.097 | 2.6 ± 0.071 |
| GKKSSSSTKDYLTPPHE [RET1] | 3.72 ± 0.27 | – | 3.52 ± 0.22 | 2.85 ± 0.18 |
| NSLLLDSTPEEVSCKLL [YML103C/NUP188] | 2.67 ± 0.081 | 3.16 ± 0.08 | 2.97 ± 0.085 | 2.71 ± 0.08 |
| PRVIEPVYTAQWSATWI [PRP8] | 1.8 ± 0.072 | 2.17 ± 0.054 | 2.08 ± 0.07 | 2.13 ± 0.046 |
| LEKIHSIEVQSLPEFFT [SWI3] | 2.69 ± 0.074 | 2.53 ± 0.073 | 2.43 ± 0.12 | 2.52 ± 0.069 |
| TLHLVLRLRGGGKKRKK [RPS31] | 2.34 ± 0.26 | 2.32 ± 0.084 | 2.83 ± 0.3 | 2.86 ± 0.14 |
| YYAKKRAFTKKVSSASA [RPL16B] | 1.82 ± 0.075 | 1.71 ± 0.048 | 1.95 ± 0.068 | 1.41 ± 0.055 |
| IAAYIRRHRNPDLQFIV [SMC1] | 1.16 ± 0.048 | 1.21 ± 0.047 | 1.2 ± 0.079 | 1.07 ± 0.04 |
| KDTIVKEAEDKTLVALE [RPC37] | 3.4 ± 0.11 | 3.11 ± 0.093 | 3.33 ± 0.19 | 3.18 ± 0.097 |
| FGVTKARWPAKSVKFVQ [RPL17A] | 2.63 ± 0.088 | 2.51 ± 0.077 | 2.55 ± 0.069 | 3.05 ± 0.059 |
| DTVDRLIIKYQKYWESM [GAL11] | 2.73 ± 0.053 | 2.83 ± 0.065 | 2.62 ± 0.053 | 3.02 ± 0.062 |
| SLHRQQQQQQQQVPPLP [DLS1] | 2.78 ± 0.056 | 2.81 ± 0.06 | 2.63 ± 0.046 | 2.94 ± 0.061 |
| KLMDEDSVATVIEVIET [YJR042W/NUP85] | 2.85 ± 0.13 | 3.02 ± 0.16 | 2.51 ± 0.11 | 2.98 ± 0.15 |
| AFSSVEHIIRDVHNGYI [COB] | 3.16 ± 0.23 | 3 ± 0.26 | 3.37 ± 0.24 | 2.99 ± 0.16 |
| ISEVMEDRNQRIKEMYW [FAS1] | 3.07 ± 0.16 | 3.3 ± 0.17 | 2.99 ± 0.12 | 2.97 ± 0.12 |
| QKIMILQRTILNRIINH [RGR1] | 1.81 ± 0.068 | 1.83 ± 0.067 | 2 ± 0.076 | 1.7 ± 0.055 |
| TNSSILLGKILPREEHD [RRP6] | 1.55 ± 0.064 | 2.18 ± 0.16 | 1.61 ± 0.25 | 1.58 ± 0.11 |
| KNNNNANNNGSNLQRAQ [GAL11] | 3.38 ± 0.13 | – | 3.28 ± 0.14 | 3.02 ± 0.11 |
| EDNKYAIAGNSTTNSDV [RGR1] | 2.89 ± 0.13 | 2.92 ± 0.12 | 2.99 ± 0.06 | 2.93 ± 0.08 |
| IYSVEKKISRLPKFLTV [UBP6] | 2.04 ± 0.065 | 2.07 ± 0.066 | 2.14 ± 0.091 | 2.46 ± 0.035 |
| KVFDCGDNIVMSANGFA [PRE7] | 2.88 ± 0.24 | 2.92 ± 0.12 | 2.88 ± 0.11 | 2.97 ± 0.15 |
